{
  "source": "patent US12281162",
  "about": "(LANOVA MEDICINES DEVELOPMENT, dated 2025)",
  "binders": {"B1": {"name": "58-H2L2 (antibody, V domains shown)", "VH": "QVQLVQSGAEVKKPGASVKVSCKASGYSFTGYYIHWVRQAPGQGLEWIGYISSYNAATSFNQKFKGRVTFTVDTSTSTVYMELSSLRSEDTAVYYCARTELRGPWFAYWGQGTLVTVSS", "VL": "DTQMTQSPSSLSASVGDRVTITCSASSSVSYMNWYQQKPGKAPKRLIYDTSKLASGVPSRFSGSGSGTDYTLTISSLQPEDFATYYCQQWSNNPLTFGQGTKLEIK", "notes": "humanized 58F9G10, VH v2 x VL v2"}, "B2": {"name": "58-H2L1 (antibody, V domains shown)", "VH": "B1 VH", "VL": "B1 VL with T2I, R45L, Y70F", "notes": "humanized 58F9G10, VH v2 x VL v1"}, "B3": {"name": "58-H3L2 (antibody, V domains shown)", "VH": "B1 VH with R38K, L83F", "VL": "B1 VL", "notes": "humanized 58F9G10, VH v3 x VL v2"}, "B4": {"name": "58-H1L3 (antibody, V domains shown)", "VH": "B1 VH with I48M, F70M, V72R", "VL": "B1 VL with M4L, I21M, L77M", "notes": "humanized 58F9G10, VH v1 x VL v3"}, "B5": {"name": "58-H4L3 (antibody, V domains shown)", "VH": "B1 VH with V20I, R38K, V68A, V79A, L83F, T91S", "VL": "B1 VL with M4L, I21M, L77M", "notes": "humanized 58F9G10, VH v4 x VL v3"}, "B6": {"name": "58-H1L2 (antibody, V domains shown)", "VH": "B1 VH with I48M, F70M, V72R", "VL": "B1 VL", "notes": "humanized 58F9G10, VH v1 x VL v2"}, "B7": {"name": "58-H4L1 (antibody, V domains shown)", "VH": "B1 VH with V20I, R38K, V68A, V79A, L83F, T91S", "VL": "B1 VL with T2I, R45L, Y70F", "notes": "humanized 58F9G10, VH v4 x VL v1"}, "B8": {"name": "58-H4L2 (antibody, V domains shown)", "VH": "B1 VH with V20I, R38K, V68A, V79A, L83F, T91S", "VL": "B1 VL", "notes": "humanized 58F9G10, VH v4 x VL v2"}, "B9": {"name": "58-H3L3 (antibody, V domains shown)", "VH": "B1 VH with R38K, L83F", "VL": "B1 VL with M4L, I21M, L77M", "notes": "humanized 58F9G10, VH v3 x VL v3"}, "B10": {"name": "58-H2L3 (antibody, V domains shown)", "VH": "B1 VH", "VL": "B1 VL with M4L, I21M, L77M", "notes": "humanized 58F9G10, VH v2 x VL v3"}, "B11": {"name": "2D3C12 (antibody, V domains shown)", "VH": "QVQLQQSGAELVRPGTSVKVSCKASGYAFINYLIEWIKQRPGQGLEWIGMINPGSGGTNYNEKFKDKATLTADKSSSTAYMQLSSLTSDDSAVYFCARNWDVWGQGTTLTVSS", "VL": "DVVMTQSPLSLPVSLGDQASVSCRSSQSLVHSTGNTYLHWYLQKPGQSPKLLIYKVSNRFSGVPDRFSGSGSGTDFTLKISRVEAEDLGVYFCSQSTHVPWTFGGGTKLEIK", "notes": "murine antibody from hybridoma supernatant"}, "B12": {"name": "21C3C11B3 (antibody, V domains shown)", "VH": "B11 VH", "VL": "B11 VL", "notes": "as for B11"}, "B13": {"name": "34D4A10 (antibody, V domains shown)", "VH": "B11 VH with N31S", "VL": "B11 VL", "notes": "as for B11"}, "B14": {"name": "58F9G10 (antibody, V domains shown)", "VH": "EVQLQQSGPELVKTGASVKISCKASGYSFTGYYIHWVKQSHGKSLEWIGYISCYNGATSFNQKFKGKATFTVDTSSSTAYMQFNSLTSEDSAVYYCARTELRGPWFAYWGQGTLVTVSA", "VL": "QTVLTQSPAIMSASPGEKVTMTCSASSSVSYMNWYQQKSGTSPKRWIYDTSKLASGVPARFSGSGSGTSYSLTISSMEAEDAATYYCQQWSNNPLTFGAGTKLELK", "notes": "as for B11"}, "B15": {"name": "37B9C4 (antibody, V domains shown)", "VH": "EVNLEESGGGLVQPGGSMKLSCVASGFTFSDYWMNWVRQSPEKGLEWVAEIRLKSNNYATHYAESVKGRFTISRDDSKSSVYLQMNNLRAEDTGIYYCTRPLLWFRRYYAMDYWGQGTSVTVSS", "VL": "DIQMTQTTSSLSASLGDRITISCSASQGISNYLNWYQQKPDGTVKLLIYYTSSLHSGVPSRFSGSGSGTDYSLTISNLEPADIATYYCQQYSKLPFTFGSGTKLEIK", "notes": "as for B11"}, "B16": {"name": "34D3H1 (antibody, V domains shown)", "VH": "EVHLVESGGDLVKPGGSLKLSCAASGFTFSSYGMSWVRQTPDKRLEWVATISSGGSYTYYPDSVKGRFTISRDNAKNTLNLQMSSLKSEDTAMYYCARQGGDAMDYWGQGTSVTVSS", "VL": "DIVLTQSPATLSVTPGDSVSLSCRASQSINNNLHWYQQKSHESPRLLIKYASQSISGIPSRFSGSGSGTDFTLSINSVETEDFGMYFCQQSNSRLTFGAGTKLELK", "notes": "as for B11"}, "B17": {"name": "40A5B2 (antibody, V domains shown)", "VH": "EVQLQQSGPELVKPGASVKMSCKASGYTFTRNIMHWVKQKPGQGLEWIGYINPYNAGSKYNEKFKGKATLTSDISSSTAYMELSSLTSEDSAVYYCAREEVYYRYGAWFAYWGHGTLVTVSA", "VL": "DIVLTQSPASLAVSLGQRATISCRASQSVSTSSYSYMHWYQQKPGQPPKLLIKYASNLESGVPARFSGSGSGTDFTLNIHPVEEEDTATYYCQHSWEIPRTFGGGTKLEIK", "notes": "as for B11"}, "B18": {"name": "29B2C10 (antibody, V domains shown)", "VH": "EVQLQQSGPELVKPGASMKLSCKASGYSFTGYTMHWVKQSHGENLEWIGLINPYNGGTNYNQKFKGKATLTVDKSSSTAYMELLSLTSEDSAVYYCSRWGLRRAMDYWGQGTSVTVSS", "VL": "DIVMTQSQKFMSTSVGDRVSVTCKASQNVGSNVAWYQQKPGQSPKALIYSASYRYSGVPDRFTGNGSGTDFTLTISNVQSEDLAEYFCQQYYNSPWTFGGGTKLEIK", "notes": "as for B11"}, "B19": {"name": "14F3H2 (antibody, V domains shown)", "VH": "B18 VH with L20I, H35N, E43K, T58I, N59R, S97A", "VL": "B18 VL with S31T, N65S, Y92N, N93S", "notes": "as for B11"}, "B20": {"name": "29A7H11H4C12 (antibody, V domains shown)", "VH": "B18 VH with L20I", "VL": "B18 VL with V15I", "notes": "as for B11"}, "B21": {"name": "26E1D12 (antibody, V domains shown)", "VH": "B18 VH with L20I, H35N, E43K, T71A, E82D", "VL": "B18 VL with N65S, Y92N", "notes": "as for B11"}, "B22": {"name": "6G10D9 (antibody, V domains shown)", "VH": "QVQLQQSGAELARPGASVKMSCKASGYTFTTYTMHWVKQRPGQGLEWLGYINPSSGYTNYNQKFKDKATLTAGKSSSTAYMQLSSLTSEDSAVYYCASLRSRGYFDYWGQGTTLTVSS", "VL": "DIVMTQSQTFMSTSVGDRVRITCKASQNVGTAVVWYQQKTGQSPRLLIYSASNRYTGVPDRFTGSGSGTDFTLTISNMQSEDLADFFCQQYSSYPYTFGGGTKLEIK", "notes": "as for B11"}, "B23": {"name": "38A10E9A11 (antibody, V domains shown)", "VH": "B22 VH with L48I, Q110R", "VL": "B22 VL with T9K, M11L, R20S, V34A, T40P, R45K, D85G, F86Y", "notes": "as for B11"}, "B24": {"name": "14C2A11C6 (antibody, V domains shown)", "VH": "QVHLQQSGAELARPGASVKMSCKASGYTFTTYTMHWVKQRPGQGLEWIGYINPNSAYTNYNQKFKDKATLTADKSSSTAYMQLSSLTSEDSAVYYCARRVLLLRVLDFFDYWGQGTTLTVSS", "VL": "DVQITQSPSYLAASPGETITINCRASKSINKYLTWYQEKPGKTNKLLIYSGSTLQSGIPSRFSGSGSGSDFTLTISSLEPEDFAMYYCQQHNEYPLTFGTGTKLELK", "notes": "murine antibody from hybridoma supernatant; also called 14C2A1106"}},
  "note": "Substitutions are numbered along the chain they refer to.",
  "data": [
    {"target": "T1, human G-protein-coupled receptor family C group 5 member D (GPRC5D) (human, UniProt Q9NZD1 1-345)", "T1 construct": "whole, on cells; also called human GPRC5D protein", "T1 sequence (Q9NZD1 whole entry)": "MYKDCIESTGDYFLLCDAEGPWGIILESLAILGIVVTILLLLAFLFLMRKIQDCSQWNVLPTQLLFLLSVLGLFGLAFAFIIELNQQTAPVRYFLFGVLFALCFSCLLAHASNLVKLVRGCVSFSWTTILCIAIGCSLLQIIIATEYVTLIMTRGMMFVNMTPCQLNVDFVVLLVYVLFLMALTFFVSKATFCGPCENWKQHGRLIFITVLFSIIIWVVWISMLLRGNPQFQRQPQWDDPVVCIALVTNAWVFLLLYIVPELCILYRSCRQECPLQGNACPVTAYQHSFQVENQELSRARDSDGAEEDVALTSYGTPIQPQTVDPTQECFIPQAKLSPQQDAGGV", "test": "FACS, CHO-K1/GPRC5D", "values": [
      {"binder": "B1", "Bottom": 4840, "LogEC50": 0.345, "Span": 103000, "Top": 108000},
      {"binder": "B2", "Bottom": 3620, "LogEC50": 0.378, "Span": 106000, "Top": 110000},
      {"binder": "B3", "Bottom": 5980, "LogEC50": 0.374, "Span": 99500, "Top": 105000},
      {"binder": "B4", "Bottom": 4230, "LogEC50": 0.231, "Span": 101000, "Top": 105000},
      {"binder": "B5", "Bottom": 6250, "LogEC50": 0.287, "Span": 96400, "Top": 103000},
      {"binder": "B6", "Bottom": 5500, "LogEC50": 0.263, "Span": 109000, "Top": 114000},
      {"binder": "B7", "Bottom": 4990, "LogEC50": 0.365, "Span": 99600, "Top": 105000},
      {"binder": "B8", "Bottom": 4600, "LogEC50": 0.341, "Span": 100000, "Top": 105000},
      {"binder": "B9", "Bottom": 4020, "LogEC50": 0.318, "Span": 93700, "Top": 97700},
      {"binder": "B10", "Bottom": 1230, "LogEC50": 0.27, "Span": 90500, "Top": 91700}
    ]},
    {"target": "T1, human G-protein-coupled receptor family …", "test": "FACS, CHO-K1/human GPRC5D, hybridoma supernatant", "method": "Antibodies harvested from the supernatants of the hybridomas were tested for their binding to the human GPRC5D protein expressed on CHO K1 cells was tested. CHO—K1 cells stably expressed human GPRC5D, were harvested from flasks. 100 µl of 1×10^6 cells/ml of cells were incubated with murine antibodies in 3-fold serial dilutions for 30 minutes on ice. After being washed with 200 µl of FACS buffer twice, cells were incubated with secondary antibody for 30 minutes on ice. Cells were washed with 200 µl of FACS buffer twice and transferred to BD Falcon 5 ml tube and analyzed by FACS.", "values": [
      {"binder": "B11", "Bottom": 46100, "LogEC50": 0.454, "Span": 789000, "Top": 835000},
      {"binder": "B12", "Bottom": 57000, "LogEC50": 0.654, "Span": "1.45e+06", "Top": "1.51e+06"},
      {"binder": "B13", "Bottom": 2740, "LogEC50": 1.02, "Span": 919000, "Top": 922000},
      {"binder": "B14", "Bottom": -14700, "LogEC50": 0.964, "Span": "2.07e+06", "Top": "2.05e+06"},
      {"binder": "B15", "Bottom": 10900, "LogEC50": 0.592, "Span": "1.75e+06", "Top": "1.76e+06"},
      {"binder": "B16", "Bottom": -13300, "LogEC50": 0.884, "Span": "1.43e+06", "Top": "1.41e+06"},
      {"binder": "B17", "Bottom": 25400, "LogEC50": 0.511, "Span": "1.17e+06", "Top": "1.2e+06"},
      {"binder": "B18", "Bottom": 68600, "LogEC50": 0.62, "Span": "1.54e+06", "Top": "1.61e+06"},
      {"binder": "B19", "Bottom": 20400, "LogEC50": 0.874, "Span": 852000, "Top": 873000},
      {"binder": "B20", "Bottom": 43400, "LogEC50": 0.738, "Span": "1.42e+06", "Top": "1.46e+06"},
      {"binder": "B21", "Bottom": 52700, "LogEC50": 0.225, "Span": 625000, "Top": 678000},
      {"binder": "B22", "Bottom": 6870, "LogEC50": 0.912, "Span": "1.42e+06", "Top": "1.43e+06"},
      {"binder": "B23", "Bottom": 24000, "LogEC50": 0.947, "Span": "1.76e+06", "Top": "1.79e+06"},
      {"binder": "B24", "Bottom": 5570, "LogEC50": 0.993, "Span": 723000, "Top": 729000}
    ]}
  ]
}
